Data set [1] concerns the molecule itself. Nature of the data set: cryo-EM structure; single-particle cryo-EM of purified truncated channel (residues 1-345) in GDN, in the presence of 5 mM Ca2+; C5 symmetry refinement.
Data set [2] concerns the molecule itself. Kind of data set: cryo-EM structure; single-particle cryo-EM of purified channel in GDN (200 mM NaCl, 40 mM HEPES pH 7.8, 0.005% GDN); without Ca2+ (EGTA) or after a 30 s spike of 1 uM or 5 mM Ca2+; C5 symmetry refinement.

B1: bBest2_(1–345) (domain or fragment, bovine, UniProt E1BF86 1-345, looked up)
chain: MTVTYTARVAKARFGGFSKLLLLWRGSIYKLLWRELLCFLGLFMALSAAYRFVLTEEQKRYFEKLVLYCDRYASLIPVSFVLGFYVTLVVHRWWNQYLSMPLTDALMCVVVGTVHGHDERGRLYRRTLMRYAGLSGVLILRSVSTAVFKRFPTIDHVVEAGFMTREERKKFENLNSSYNKYWVPCVWFCNLAAQARREGRIRDNGAFKLLLEELNVFRSKCGMLFHYDWISVPLVYTQVVTIAVYSYFLACLIGRQFLDPAQGYKDHDLDLCVPIFTLLQFFFYAGWLKVAEQLINPFGEDDDDFETNFLIDRCFQVSMLAVDEMYDDLAMLEKDLYWDAAEARA
notes: PDB 6VX7 is the cited earlier bBest2 structure, another construct; also called bBEST2 345; AS truncated bovine Best2; source: HEK293-F cells, Bacmam system, purified (GDN extraction, Ni-NTA, TEV cleavage, gel filtration)
For the protein B1, in data set [1], the binding result is “binds”.

B2: wild-type human bestrophin-1 (natural protein)
chain: MTITYTSQVANARLGSFSRLLLCWRGSIYKLLYGEFLIFLLCYYIIRFIYRLALTEEQQLMFEKLTLYCDSYIQLIPISFVLGFYVTLVVTRWWNQYENLPWPDRLMSLVSGFVEGKDEQGRLLRRTLIRYANLGNVLILRSVSTAVYKRFPSAQHLVQAGFMTPAEHKQLEKLSLPHNMFWVPWVWFANLSMKAWLGGRIRDPILLQSLLNEMNTLRTQCGHLYAYDWISIPLVYTQVVTVAVYSFFLTCLVGRQFLNPAKAYPGHELDLVVPVFTFLQFFFYVGWLKVAEQLINPFGEDDDDFETNWIVDRNLQVSLLAVDEMHQDLPRMEPDMYWNKPEPQPPYTAASAQFRRASFMGSTFNISLNKEEMEFQPNQEDEEDAHAGIIGRFLGLQSHDHHPPRANSRTKLLWPKRESLLHEGLPKNHKAAKQNVRGQEDNKAWKLKAVDAFKSAPLYQRPGYYSAPQTPLSPTPMFFPLEPSAPSKLHSVTGIDTKDKSLKTVSSGAKKSFELLSESDGALMEHPEVSQVRRKTVEFNLTDMPEIPENHLKEPLEQSPTNIHTTLKDHMDPYWALENRDEAHS
notes: human bestrophin-1 (hBest1), wild type; also called hBest1; WT hBest1; source: HEK293-F cells, Bacmam system, purified (GDN extraction, Ni-NTA, TEV cleavage, gel filtration)
With B2, the “stoichiometry N” value in data set [2] came out at 5.

B3: wild-type human bestrophin-2 (natural protein, UniProt Q8NFU1 1-509, looked up)
chain: MTVTYTARVANARFGGFSQLLLLWRGSIYKLLWRELLCFLGFYMALSAAYRFVLTEGQKRYFEKLVIYCDQYASLIPVSFVLGFYVTLVVNRWWSQYLCMPLPDALMCVVAGTVHGRDDRGRLYRRTLMRYAGLSAVLILRSVSTAVFKRFPTIDHVVEAGFMTREERKKFENLNSSYNKYWVPCVWFSNLAAQARREGRIRDNSALKLLLEELNVFRGKCGMLFHYDWISVPLVYTQVVTIALYSYFLACLIGRQFLDPAQGYKDHDLDLCVPIFTLLQFFFYAGWLKVAEQLINPFGEDDDDFETNFLIDRNFQVSMLAVDEMYDDLAVLEKDLYWDAAEARAPYTAATVFQLRQPSFQGSTFDITLAKEDMQFQRLDGLDGPMGEAPGDFLQRLLPAGAGMVAGGPLGRRLSFLLRKNSCVSEASTGASCSCAVVPEGAAPECSCGDPLLDPGLPEPEAPPPAGPEPLTLIPGPVEPFSIVTMPGPRGPAPPWLPSPIGEEEENLA
notes: human bestrophin-2 (hBest2), wild type; also called hBest2; WT hBest2; source: HEK293-F cells, Bacmam system, purified (GDN extraction, Ni-NTA, TEV cleavage, gel filtration)
As for B3, in data set [2], the “stoichiometry N” value turned out to be 5.

B4: hBest1_(1–345) (domain or fragment, human, UniProt O76090 1-345, looked up)
chain: MTITYTSQVANARLGSFSRLLLCWRGSIYKLLYGEFLIFLLCYYIIRFIYRLALTEEQQLMFEKLTLYCDSYIQLIPISFVLGFYVTLVVTRWWNQYENLPWPDRLMSLVSGFVEGKDEQGRLLRRTLIRYANLGNVLILRSVSTAVYKRFPSAQHLVQAGFMTPAEHKQLEKLSLPHNMFWVPWVWFANLSMKAWLGGRIRDPILLQSLLNEMNTLRTQCGHLYAYDWISIPLVYTQVVTVAVYSFFLTCLVGRQFLNPAKAYPGHELDLVVPVFTFLQFFFYVGWLKVAEQLINPFGEDDDDFETNWIVDRNLQVSLLAVDEMHQDLPRMEPDMYWNKPEPQP
notes: also called hBEST1 345; AS truncated hBest1; source: HEK293-F cells, Bacmam system, purified (GDN extraction, Ni-NTA, TEV cleavage, gel filtration)
For B4, the binding result in data set [1] is “binds”.

Usually stoichiometry N stands for a count of units in the complex or per binding partner.

Values taken from paper PMC9253114, “Structures and gating mechanisms of human bestrophin anion channels” (Nature Communications, 2022).
